Results taken from patent US20180118848A1 (Regeneron, published 2018).
Substitutions are numbered along the chain they refer to. Names and notes keep the numbering of the source. One block for each binder: values may come before it.

Experiments:
human MUC16 (mucin 16) [1] = biological target: T1, human MUC16 (mucin 16) (human); assay: MSD ECL cell binding, RLU ratio OVCAR-3 vs SK-OV-3, 1.9 nM Ab
T1 construct: Endogenously expressed on human tumour cell lines; also called hMUC16
Experimental: (§1) The ability of anti-MUC16 antibodies to bind specifically to endogenously expressing MUC16 on the human ovarian carcinoma cell line (OVCAR-3) was evaluated via an electrochemiluminescence based detection assay (Meso Scale Discovery (MSD), Rockville, Md.). […] Detached cells were then washed once in 1×PBS supplemented with Ca²⁺/Mg²⁺ and counted (Cellometer Auto T4 cell counter, Nexcelom Bioscience, Lawrence, Mass.). Approximately 1.0×10⁴ cells were plated in MULTI-ARRAY 96-well carbon electrode plates (MSD) and incubated for 1 h at 37° C. […] Next, serial dilutions of anti-MUC16 or control antibodies (0.85 pM-50 nM) and no-antibody buffer controls were added to the plate-bound cells and incubated for 1 h at room temperature (RT). Plates were then washed to remove the unbound antibodies using an AquaMax2000 plate washer (MDS Analytical Technologies, Sunnyvale, Calif.). Plate-bound antibodies were detected with a SULFO-TAG™-conjugated anti-human kappa light chain antibody (Regeneron) or a SULFO-TAG™-conjugated anti-mouse IgG antibody (Jackson Immunoresearch, West Grove, Pa.) for 1 h at RT. Post-wash, plates were developed with Read Buffer (MSD) according to manufacturer's protocol and luminescent signals were recorded with a SECTOR Imager 6000 (MSD) instrument.
(§2) Luminescence intensity, measured in relative light units (RLU), for the two cell lines was recorded to indicate the binding intensity of each antibody.

human MUC16 (mucin 16) [2] = biological target: T1, human MUC16 (mucin 16); assay: MSD ECL cell binding, RLU ratio OVCAR-3 vs SK-OV-3, 16.7 nM Ab
Experimental: as §1, §2

human MUC16 (mucin 16) [3] = biological target: T1, human MUC16 (mucin 16); assay: cell-based or functional assay
human MUC16 (mucin 16) [4] = biological target: T1, human MUC16 (mucin 16); assay: cell-based or functional assay; remark: listed apart in the source
human MUC16 (mucin 16) [5] = biological target: T1, human MUC16 (mucin 16); assay: FACS binding titration on PEO-1 (MUC16+) cells
Experimental: A. Briefly, flow cytometric analysis (i.e. fluorescence-activated cell sorting, or FACS) was utilized to determine binding of bispecific antibodies to Jurkat cells or cells expressing human MUC16, followed by detection with a phycoerythrin (PE)-labeled or APC-labeled anti-human IgG antibody. […] After incubation, the cells were washed twice with cold PBS containing 1% filtered FBS and a PE-conjugated or APC-conjugated anti-human secondary antibody was added to the cells and incubated for an additional 30 minutes. Wells containing no antibody or secondary only were also used as controls. After incubation, cells were washed, re-suspended in 200 μL cold PBS containing 1% filtered FBS and analyzed by flow cytometry on a BD FACS Canto II.
B. In separate experiments with analogous conditions to that described above, flow cytometric analysis (or FACS) was utilized to determine binding of select bispecific antibodies to Jurkat cells, PEO-1, OVCAR3-Luc and cynomolgus T cells. For the titration analysis, serial dilution of selected MUC16×CD3 bispecific antibodies, a first isotype control antibody (a human chimeric IgG4 antibody that binds an irrelevant human antigen with no cross-reactivity to human or cynomolgus CD3) and a second isotype control antibody (a human chimeric IgG4 antibody that binds an irrelevant human antigen with no cross-reactivity to human MUC16), ranging from 66.6 nM to 0.001 nM.
For FACS analysis, cells were gated by forward scatter height vs. forward scatter area for single events selection, followed by side and forward scatters. The EC50 for cell binding titration was determined using PRISM™ software (GraphPad Software, Inc., La Jolla, Calif.). Values were calculated using 4-parameter non-linear regression analysis. (Liu, J., et al. 2005, Biotechnol Letters 27:1821-1827).

human MUC16 (mucin 16) [6] = biological target: T1, human MUC16 (mucin 16); assay: FACS binding titration on OVCAR3 (MUC16+) cells

- Ratio anti-MUC16 Binding OVCAR-3/SK-OV-3 (human MUC16 (mucin 16) [1]): 143 ratio
- Ratio anti-MUC16 Binding OVCAR-3/SK-OV-3 (human MUC16 (mucin 16) [2]): 99 ratio
B4: H3M9529N (antibody, mouse IgG3, V domains shown)
VH: QVQLQQWGAGLLKPSETLSLTCAVYGGSFSGFYWSWIRQPPGKGLEWIGEINHSGSAKYNPSLKNRVIISIDTSKNQFSLKLDSVTAADTAVYNCARQGWNFAIFDYWGQGTLVDVSS
VL: DIVMTQSPDSLAVSLGGRATINCKSSQSVLHSSYNKDHLAWYQQRPGQPPKLLIYWASTRESGVPDRFSGSGSGTDFTLTISSLQAEDVAVYYCQQYNILPPTFGQGTRVEIK
notes: Human variable regions, mouse IgG3 constant region

- Ratio anti-MUC16 Binding OVCAR-3/SK-OV-3 (human MUC16 (mucin 16) [1]): 82 ratio
- Ratio anti-MUC16 Binding OVCAR-3/SK-OV-3 (human MUC16 (mucin 16) [2]): 50 ratio
B6: H2M7138N (antibody, mouse IgG2, V domains shown)
VH: QVQLVQSGAEVKKPGASVKVSCKASGYTFTSSDINWVRQATGQGLEWVGWMNPNYGYTGSARKFQDRVTMTRNTSLSTAYLELHSLRSEDTAVYYCARVTYCSSVTSCFRPFTYWGQGTLVTVSA
VL: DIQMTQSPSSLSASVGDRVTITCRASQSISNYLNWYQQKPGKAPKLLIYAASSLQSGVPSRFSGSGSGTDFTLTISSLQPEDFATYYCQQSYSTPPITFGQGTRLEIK
notes: Human variable regions, mouse IgG2 constant region; also called H2aM7138N

- PEO-1 cell depletion EC50 (human MUC16 (mucin 16) [3]): 0.0675 nM
- OVCAR3 cell depletion EC50 (human MUC16 (mucin 16) [4]): 0.0306 nM
- EC50 (human MUC16 (mucin 16) [5]): 3.13 nM
- EC50 (human MUC16 (mucin 16) [6]): 2.69 nM
B7: BSMUC16/CD3-002 (bispecific antibody, V domains shown)
VH 1: QVQLVESGGGLVKPGGSLRLSCAASGFTFSNYYMSWVRQAPGKGLEWISYISGRGSTIFYADSVKGRITISRDNAKNSLFLQMNSLRAEDTAVYFCVKDRGGYSPYWGQGTLVTVSS
VH 2: EVQLVESGGGLVQPGRSLRLSCAASGFTFDDYSMHWVRQAPGKGLEWVSGISWNSGSIGYADSVKGRFTISRDNAKNSLYLQMNSLRAEDTALYYCAKDGSGYGKFYYYGMDVWGQGTTVTVSS
VL: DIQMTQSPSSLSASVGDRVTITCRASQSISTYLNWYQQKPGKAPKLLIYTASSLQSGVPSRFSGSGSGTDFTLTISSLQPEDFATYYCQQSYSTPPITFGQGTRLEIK
notes: Anti-MUC16 HCVR of H1H8767P, anti-CD3 HCVR CD3-VH-G5, common light chain of H1H8767P; also called anti-MUC16xCD3 bispecific antibody with CD3-VH-G5 arm

- Ratio anti-MUC16 Binding OVCAR-3/SK-OV-3 (human MUC16 (mucin 16) [1]): 89 ratio
- Ratio anti-MUC16 Binding OVCAR-3/SK-OV-3 (human MUC16 (mucin 16) [2]): 26 ratio
B8: H2M9538N (antibody, V domains shown)
VH: QVQLQESGPGLVKPSETLSLTCTVSGGSISSYYWSWIRQPPGKGLEWIGYIYYSGSTNYNPSLKSRVTISVDTSKNQFSLKLSSVTAADTAVYYCARKKLVFDYWGQGTLVTVSS
VL: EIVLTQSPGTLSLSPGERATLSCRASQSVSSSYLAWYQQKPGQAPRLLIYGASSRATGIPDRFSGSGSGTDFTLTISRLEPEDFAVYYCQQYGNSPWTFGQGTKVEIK

- Ratio anti-MUC16 Binding OVCAR-3/SK-OV-3 (human MUC16 (mucin 16) [1]): 12 ratio
- Ratio anti-MUC16 Binding OVCAR-3/SK-OV-3 (human MUC16 (mucin 16) [2]): 13 ratio
B9: H1H9538N (antibody, V domains shown)
VH: B8 VH
VL: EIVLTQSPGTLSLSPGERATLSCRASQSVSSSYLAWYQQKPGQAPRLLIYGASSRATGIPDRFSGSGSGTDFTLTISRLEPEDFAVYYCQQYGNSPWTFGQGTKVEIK

Continued, binder first:

B1: H1H8755P (antibody, human IgG1, V domains shown)
VH: EVQLVESGGGLVQPGRSLRLSCAASGFTFNDYAMHWVRQSPGKGLEWVSGIDWNGGSIDYADSVKGRFTISRDTAKNSLYLQMNSLKVEDTALYYCAKDIGHWNYIGGMDVWGQGTTVTVSS
VL: DIQMTQSPSSLSASVGDRVTITCRASQSINIYLNWYQQKPGKAPKFLIYAASSLQTGVPSRFSGSGSGTDFTLTISSLEPEDFATYYCQHSYSTPPITFGQGTRLEIK
notes: Human IgG1 (H1H: hIgG1)
- Ratio anti-MUC16 Binding OVCAR-3/SK-OV-3 (human MUC16 (mucin 16) [1]): 13 ratio
- Ratio anti-MUC16 Binding OVCAR-3/SK-OV-3 (human MUC16 (mucin 16) [2]): 5 ratio

B2: H1H8794P (antibody, V domains shown)
VH: QVQLVESGGGLVKPGGSLRLSCAASGFTFRDYSMSWIRQAPGKGLEWVSYVTFFNSAIYYADSVKGRFTISRDNAKNSLYLQMNSLRAEDTAVYYCAREREPIVGGFDYWGQGTLVTVSS
VL: B1 VL with I31S, F46L, T56G, S65G, S76T, E79Q, Y86F, H90Q, T94S
notes: Human IgG1
- Ratio anti-MUC16 Binding OVCAR-3/SK-OV-3 (human MUC16 (mucin 16) [1]): 8 ratio
- Ratio anti-MUC16 Binding OVCAR-3/SK-OV-3 (human MUC16 (mucin 16) [2]): 3 ratio

B3: H1H8790P (antibody, human IgG1, V domains shown)
VH: EVQLVESGGGLVQPGGSLRLSCEASGFTFSNYAMSWVRQAPGKGLEWVSGMSGSGTYPYYADSVKGRFTISRDNSKNMLYLQMNSLRVKDTAVYYCAKDGVDTAMILDTFDLWGQGTMVTVSS
VL: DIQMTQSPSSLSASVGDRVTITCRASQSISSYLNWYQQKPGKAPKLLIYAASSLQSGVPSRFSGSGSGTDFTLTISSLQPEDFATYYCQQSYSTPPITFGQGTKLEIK
notes: Human IgG1
- Ratio anti-MUC16 Binding OVCAR-3/SK-OV-3 (human MUC16 (mucin 16) [1]): 8 ratio
- Ratio anti-MUC16 Binding OVCAR-3/SK-OV-3 (human MUC16 (mucin 16) [2]): 3 ratio

B5: H1H9529N (antibody, human IgG1, V domains shown)
VH: B4 VH
VL: B4 VL
notes: Human IgG1 form of H3M9529N
- Ratio anti-MUC16 Binding OVCAR-3/SK-OV-3 (human MUC16 (mucin 16) [1]): 109 ratio
- Ratio anti-MUC16 Binding OVCAR-3/SK-OV-3 (human MUC16 (mucin 16) [2]): 74 ratio
